Drawing on patent US20110118447A1, this text covers fold difference in affinity vs original and fold affinity vs original for 19 molecules.

Assay [1] addresses binding partner of C5A (XPA23). Kind of assay: Biacore, K-off.
The target in assay [2] is binding partner of C5A (XPA23). Kind of assay: Biacore. (In general: In SPR one partner is held on a chip, and binding of the other changes the refractive index at the surface.)

B1: C5A (XPA23) VH R59N (antibody, V domains shown)
VH: EVQLLESGGGLVQPGGSLRLSCAASGFTFSKYFMFWVRQAPGKGLEWVSVISPSGGMTNYADSVKGRFTISRDNSKNTLYLQMNSLRAEDTAVYYCARVGYGGNSDYWGQGTLVTVSS
VL: DIQMTQSPSSVSASVGDRLTIICRASQDINRWLAWYQQTPGNAPKLLIHSATSLQSGVPSRFSGSGSGTDFTLTINSLQPEDFATYYCQQADSFPLTFGGGTKVEIK
For the molecule B1, the fold difference in affinity vs original in assay [1] was found to be 0.86 fold. The fold affinity vs original in assay [2] was 0.86 fold.

B2: C5A (XPA23) VH G100S (antibody, V domains shown)
VH: EVQLLESGGGLVQPGGSLRLSCAASGFTFSKYFMFWVRQAPGKGLEWVSVISPSGGMTRYADSVKGRFTISRDNSKNTLYLQMNSLRAEDTAVYYCARVSYGGNSDYWGQGTLVTVSS
VL: DIQMTQSPSSVSASVGDRLTIICRASQDINRWLAWYQQTPGNAPKLLIHSATSLQSGVPSRFSGSGSGTDFTLTINSLQPEDFATYYCQQADSFPLTFGGGTKVEIK
For the molecule B2, in assay [1], the fold difference in affinity vs original is 2.8 fold. Also, in assay [2], the fold affinity vs original came out at 2.8 fold.

B3: C5A (XPA23) VH N104H (antibody, V domains shown)
VH: EVQLLESGGGLVQPGGSLRLSCAASGFTFSKYFMFWVRQAPGKGLEWVSVISPSGGMTRYADSVKGRFTISRDNSKNTLYLQMNSLRAEDTAVYYCARVGYGGHSDYWGQGTLVTVSS
VL: DIQMTQSPSSVSASVGDRLTIICRASQDINRWLAWYQQTPGNAPKLLIHSATSLQSGVPSRFSGSGSGTDFTLTINSLQPEDFATYYCQQADSFPLTFGGGTKVEIK
Take B3: in assay [1], the fold difference in affinity vs original is 0.07 fold. In assay [2], the fold affinity vs original came out at 0.07 fold.

B4: C5A (XPA23) VH G100T (antibody, V domains shown)
VH: EVQLLESGGGLVQPGGSLRLSCAASGFTFSKYFMFWVRQAPGKGLEWVSVISPSGGMTRYADSVKGRFTISRDNSKNTLYLQMNSLRAEDTAVYYCARVTYGGNSDYWGQGTLVTVSS
VL: DIQMTQSPSSVSASVGDRLTIICRASQDINRWLAWYQQTPGNAPKLLIHSATSLQSGVPSRFSGSGSGTDFTLTINSLQPEDFATYYCQQADSFPLTFGGGTKVEIK
B4: the fold difference in affinity vs original in assay [1] and in assay [2] was 0.12 fold each time.

B5: C5A (XPA23) VH Y101R (antibody, V domains shown)
VH: EVQLLESGGGLVQPGGSLRLSCAASGFTFSKYFMFWVRQAPGKGLEWVSVISPSGGMTRYADSVKGRFTISRDNSKNTLYLQMNSLRAEDTAVYYCARVGRGGNSDYWGQGTLVTVSS
VL: DIQMTQSPSSVSASVGDRLTIICRASQDINRWLAWYQQTPGNAPKLLIHSATSLQSGVPSRFSGSGSGTDFTLTINSLQPEDFATYYCQQADSFPLTFGGGTKVEIK
For the molecule B5, the fold difference in affinity vs original in assay [1] was 0.85 fold. For the same molecule, in assay [2], the fold affinity vs original came out at 0.85 fold.

B6: C5A (XPA23) VH S105E (antibody, V domains shown)
VH: EVQLLESGGGLVQPGGSLRLSCAASGFTFSKYFMFWVRQAPGKGLEWVSVISPSGGMTRYADSVKGRFTISRDNSKNTLYLQMNSLRAEDTAVYYCARVGYGGNEDYWGQGTLVTVSS
VL: DIQMTQSPSSVSASVGDRLTIICRASQDINRWLAWYQQTPGNAPKLLIHSATSLQSGVPSRFSGSGSGTDFTLTINSLQPEDFATYYCQQADSFPLTFGGGTKVEIK
B6: the fold difference in affinity vs original in assay [1] came out at 1.17 fold. The fold affinity vs original in assay [2] was found to be 1.17 fold.

B7: C5A (XPA23) VH V99T (antibody, V domains shown)
VH: EVQLLESGGGLVQPGGSLRLSCAASGFTFSKYFMFWVRQAPGKGLEWVSVISPSGGMTRYADSVKGRFTISRDNSKNTLYLQMNSLRAEDTAVYYCARTGYGGNSDYWGQGTLVTVSS
VL: DIQMTQSPSSVSASVGDRLTIICRASQDINRWLAWYQQTPGNAPKLLIHSATSLQSGVPSRFSGSGSGTDFTLTINSLQPEDFATYYCQQADSFPLTFGGGTKVEIK
On to B7, for which the fold difference in affinity vs original in assay [1] and in assay [2] was 0.1 fold throughout.

B8: C5A (XPA23) VH N104T (antibody, V domains shown)
VH: EVQLLESGGGLVQPGGSLRLSCAASGFTFSKYFMFWVRQAPGKGLEWVSVISPSGGMTRYADSVKGRFTISRDNSKNTLYLQMNSLRAEDTAVYYCARVGYGGTSDYWGQGTLVTVSS
VL: DIQMTQSPSSVSASVGDRLTIICRASQDINRWLAWYQQTPGNAPKLLIHSATSLQSGVPSRFSGSGSGTDFTLTINSLQPEDFATYYCQQADSFPLTFGGGTKVEIK
In the case of B8, the fold difference in affinity vs original in assay [1] and in assay [2] was 0.95 fold each time.

B9: C5A (XPA23) VH N104Q (antibody, V domains shown)
VH: EVQLLESGGGLVQPGGSLRLSCAASGFTFSKYFMFWVRQAPGKGLEWVSVISPSGGMTRYADSVKGRFTISRDNSKNTLYLQMNSLRAEDTAVYYCARVGYGGQSDYWGQGTLVTVSS
VL: DIQMTQSPSSVSASVGDRLTIICRASQDINRWLAWYQQTPGNAPKLLIHSATSLQSGVPSRFSGSGSGTDFTLTINSLQPEDFATYYCQQADSFPLTFGGGTKVEIK
Turning to B9, the fold difference in affinity vs original in assay [1] is 0.03 fold. The fold affinity vs original in assay [2] was determined as 0.03 fold.

B10: C5A (XPA23) VH Y101E (antibody, V domains shown)
VH: EVQLLESGGGLVQPGGSLRLSCAASGFTFSKYFMFWVRQAPGKGLEWVSVISPSGGMTRYADSVKGRFTISRDNSKNTLYLQMNSLRAEDTAVYYCARVGEGGNSDYWGQGTLVTVSS
VL: DIQMTQSPSSVSASVGDRLTIICRASQDINRWLAWYQQTPGNAPKLLIHSATSLQSGVPSRFSGSGSGTDFTLTINSLQPEDFATYYCQQADSFPLTFGGGTKVEIK
As for B10, the fold difference in affinity vs original in assay [1] was found to be 0.03 fold. The fold affinity vs original in assay [2] came out at 0.03 fold.

B11: C5A (XPA23) VH Y101N (antibody, V domains shown)
VH: EVQLLESGGGLVQPGGSLRLSCAASGFTFSKYFMFWVRQAPGKGLEWVSVISPSGGMTRYADSVKGRFTISRDNSKNTLYLQMNSLRAEDTAVYYCARVGNGGNSDYWGQGTLVTVSS
VL: DIQMTQSPSSVSASVGDRLTIICRASQDINRWLAWYQQTPGNAPKLLIHSATSLQSGVPSRFSGSGSGTDFTLTINSLQPEDFATYYCQQADSFPLTFGGGTKVEIK
For the molecule B11, in assay [1], the fold difference in affinity vs original came out at 0.06 fold. For the same molecule, the fold affinity vs original in assay [2] was found to be 0.06 fold.

B12: C5A (XPA23) VH R59Q (antibody, V domains shown)
VH: EVQLLESGGGLVQPGGSLRLSCAASGFTFSKYFMFWVRQAPGKGLEWVSVISPSGGMTQYADSVKGRFTISRDNSKNTLYLQMNSLRAEDTAVYYCARVGYGGNSDYWGQGTLVTVSS
VL: DIQMTQSPSSVSASVGDRLTIICRASQDINRWLAWYQQTPGNAPKLLIHSATSLQSGVPSRFSGSGSGTDFTLTINSLQPEDFATYYCQQADSFPLTFGGGTKVEIK
On to B12, for which, in assay [1], the fold difference in affinity vs original was determined as 0.86 fold. For the same molecule, in assay [2], the fold affinity vs original was 0.86 fold.

B13: C5A (XPA23) VH Y101T (antibody, V domains shown)
VH: EVQLLESGGGLVQPGGSLRLSCAASGFTFSKYFMFWVRQAPGKGLEWVSVISPSGGMTRYADSVKGRFTISRDNSKNTLYLQMNSLRAEDTAVYYCARVGTGGNSDYWGQGTLVTVSS
VL: DIQMTQSPSSVSASVGDRLTIICRASQDINRWLAWYQQTPGNAPKLLIHSATSLQSGVPSRFSGSGSGTDFTLTINSLQPEDFATYYCQQADSFPLTFGGGTKVEIK
Turning to B13, the fold difference in affinity vs original in assay [1] and in assay [2] was 0.06 fold throughout.

B14: C5A (XPA23) VH G102N (antibody, V domains shown)
VH: EVQLLESGGGLVQPGGSLRLSCAASGFTFSKYFMFWVRQAPGKGLEWVSVISPSGGMTRYADSVKGRFTISRDNSKNTLYLQMNSLRAEDTAVYYCARVGYNGNSDYWGQGTLVTVSS
VL: DIQMTQSPSSVSASVGDRLTIICRASQDINRWLAWYQQTPGNAPKLLIHSATSLQSGVPSRFSGSGSGTDFTLTINSLQPEDFATYYCQQADSFPLTFGGGTKVEIK
As to B14, the fold difference in affinity vs original in assay [1] was found to be 1.17 fold. In addition, the fold affinity vs original in assay [2] came to 1.17 fold.

B15: C5A (XPA23) VH G100H (antibody, V domains shown)
VH: EVQLLESGGGLVQPGGSLRLSCAASGFTFSKYFMFWVRQAPGKGLEWVSVISPSGGMTRYADSVKGRFTISRDNSKNTLYLQMNSLRAEDTAVYYCARVHYGGNSDYWGQGTLVTVSS
VL: DIQMTQSPSSVSASVGDRLTIICRASQDINRWLAWYQQTPGNAPKLLIHSATSLQSGVPSRFSGSGSGTDFTLTINSLQPEDFATYYCQQADSFPLTFGGGTKVEIK
B15: the fold difference in affinity vs original in assay [1] was 0.06 fold. For the same molecule, in assay [2], the fold affinity vs original stood at 0.06 fold.

B16: C5A (XPA23) VH Y101Q (antibody, V domains shown)
VH: EVQLLESGGGLVQPGGSLRLSCAASGFTFSKYFMFWVRQAPGKGLEWVSVISPSGGMTRYADSVKGRFTISRDNSKNTLYLQMNSLRAEDTAVYYCARVGQGGNSDYWGQGTLVTVSS
VL: DIQMTQSPSSVSASVGDRLTIICRASQDINRWLAWYQQTPGNAPKLLIHSATSLQSGVPSRFSGSGSGTDFTLTINSLQPEDFATYYCQQADSFPLTFGGGTKVEIK
As for B16, in assay [1], the fold difference in affinity vs original was determined as 0.06 fold. Besides, the fold affinity vs original in assay [2] came to 0.06 fold.

B17: C5A (XPA23) VH Y101H (antibody, V domains shown)
VH: EVQLLESGGGLVQPGGSLRLSCAASGFTFSKYFMFWVRQAPGKGLEWVSVISPSGGMTRYADSVKGRFTISRDNSKNTLYLQMNSLRAEDTAVYYCARVGHGGNSDYWGQGTLVTVSS
VL: DIQMTQSPSSVSASVGDRLTIICRASQDINRWLAWYQQTPGNAPKLLIHSATSLQSGVPSRFSGSGSGTDFTLTINSLQPEDFATYYCQQADSFPLTFGGGTKVEIK
B17: the fold difference in affinity vs original in assay [1] turned out to be 0.04 fold. Moreover, the fold affinity vs original in assay [2] is 0.04 fold.

B18: C5A (XPA23) VH G100Y (antibody, V domains shown)
VH: EVQLLESGGGLVQPGGSLRLSCAASGFTFSKYFMFWVRQAPGKGLEWVSVISPSGGMTRYADSVKGRFTISRDNSKNTLYLQMNSLRAEDTAVYYCARVYYGGNSDYWGQGTLVTVSS
VL: DIQMTQSPSSVSASVGDRLTIICRASQDINRWLAWYQQTPGNAPKLLIHSATSLQSGVPSRFSGSGSGTDFTLTINSLQPEDFATYYCQQADSFPLTFGGGTKVEIK
Take B18: the fold difference in affinity vs original in assay [1] stood at 0.09 fold. Further, the fold affinity vs original in assay [2] is 0.09 fold.

B19: C5A (XPA23) VH N104S (antibody, V domains shown)
VH: EVQLLESGGGLVQPGGSLRLSCAASGFTFSKYFMFWVRQAPGKGLEWVSVISPSGGMTRYADSVKGRFTISRDNSKNTLYLQMNSLRAEDTAVYYCARVGYGGSSDYWGQGTLVTVSS
VL: DIQMTQSPSSVSASVGDRLTIICRASQDINRWLAWYQQTPGNAPKLLIHSATSLQSGVPSRFSGSGSGTDFTLTINSLQPEDFATYYCQQADSFPLTFGGGTKVEIK
As to B19, the fold difference in affinity vs original in assay [1] is 1.02 fold. Moreover, the fold affinity vs original in assay [2] worked out at 1.02 fold.
